Experiments:
[1] = biological target: fusin/CXCR4 receptor (UniProt P61073); test: flow cytometry on U937 cells, background subtracted from the 12G5 data
[2] = biological target: fusin/CXCR4 receptor (UniProt P61073); test: flow cytometry, fluorescently labeled 12G5 on untreated U937 cells

UniProt P61073, sequence (P61073 whole entry): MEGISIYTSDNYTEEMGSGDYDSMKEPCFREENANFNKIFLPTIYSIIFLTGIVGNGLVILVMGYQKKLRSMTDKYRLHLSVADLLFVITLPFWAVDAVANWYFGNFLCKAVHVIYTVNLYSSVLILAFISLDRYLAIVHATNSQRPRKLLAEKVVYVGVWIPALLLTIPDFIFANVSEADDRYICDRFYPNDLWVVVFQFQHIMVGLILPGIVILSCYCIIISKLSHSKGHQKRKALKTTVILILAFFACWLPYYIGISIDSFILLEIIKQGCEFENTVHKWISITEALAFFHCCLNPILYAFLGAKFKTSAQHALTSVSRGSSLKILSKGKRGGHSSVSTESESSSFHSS

| median fluorescence [1] | Median Fluorescence (net of isotype control) [2] | Substance |
| --- | --- | --- |
| 3.6 |  | isotype control (antibody) |
|  | 23.2 | anti-fusin/CXCR4 12G5 monoclonal antibody |

From patent publication US20050020528A1
